Source: publication PMC11871066 (2025)

Target: Negative control peptide 2014 (1907 with L145E and L152E) (UniProt P49023 141-153, S143 (i,i + 7 staple position), i,i + 7 all-hydrocarbon staple as in 1907)
Experiment: SPR

- Kd: > 200 µM
B1: Biotinylated AviTag FAK FAT protein (domain or fragment)
chain: MAAAYLDPNLNHTPNSSTKTHLGTGMERSPGAMERVLKVFHYFESNSEPTTWASIIRHGDATDVRGIIQKIVDSHKVKHVACYGFRLSHLRSEEVHWLHVDMGVSSVREKYELAHPPEEWKYELRIRYLPKGFLNQFTEDKPTLNFFYQQVKSDYMLEIADQVDQEIALKLGCLEIRRSYWEMRGNALEKKSNYEVLEKDVGLKRFFPKSLLDSVKAKTLRKLIQQTFRQFANLNREESILKFFEILSPVYRFDKECFKCALGSSWIISVELAIGPEEGISYLTDKGCNPTHLADFTQVQTIQYSNSEDKDRKGMLQLKIAGAPEPLTVTAPSLTIAENMADLIDGYCRLVNGTSQSFIIRPQKEGERALPSIPKLANSEKQGMRTHAVSVSETDDYAEIIDEEDTYTMPSTRDYEIQRERIELGRCIGEGQFGDVHQGIYMSPENPALAVAIKTCKNCTSDSVREKFLQEALTMRQFDHPHIVKLIGVITENPVWIIMELCTLGELRSFLQVRKYSLDLASLILYAYQLSTALAYLESKRFVHRDIAARNVLVSSNDCVKLGDFGLSRYMEDSTYYKASKGKLPIKWMAPESINFRRFTSASDVWMFGVCMWEILMHGVKPFQGVKNNDVIGRIENGERLPMPPNCPPTLYSLMTKCWAYDPSRRPRFTELKAQLSTILEEEKAQQEERMRMESRRQATVSWDSGGSDEAPPKPSRPGYPSPRSSEGFYPSPQHMVQTNHYQVSGYPGSHGITAMAGSIYPGQASLLDQTDSWNHRPQEIAMWQPNVEDSTVLDLRGIGQVLPTHLMEERLIRQQQEMEEDQRWLEKEERFLKPDVRLSRGSIDREDGSLQGPIGNQHIYQPVGKPDPAAPPKKPPRPGAPGHLGSLASLSSPADSYNEGVKLQPQEISPPPTANLDRSNDKVYENVTGLVKAVIEMSSKIQPAPPEEYVPMVKEVGLALRTLLATVDETIPLLPASTHREIEMAQKLLNSDLGELINKMKLAQQYVMTSLQQEYKKQMLTAAHALAVDAKNLLDVIDQARLKMLGQTRPH
modifications: biotin (biotinylated AviTag)
